The values below come from patent publication US8703452B2, “Extracellular aldonolactonase” (The Regents of the University of California, priority 2010, dated 2014).

Data set [1] deals with S. thermophile aldonolactonase 1 (Thermothelomyces thermophilus, UniProt E5LEX3). The settings on record: substrate specificity. How it is done:
(§1) Aldonolactonase activity was measured as described by Hestrin (21). The reactions were carried out in triplicate in 96-well microtiter plates. Briefly, 100 μL of 100 mM freshly dissolved sugar lactone was immediately mixed with 100 μL of 10 nM aldonolactonase enzyme buffered in 100 mM sodium acetate pH 5.0 for 1 minute at 25° C. The reaction was quenched by adding 40 μL of alkaline hydroxylamine (2.0 M hydroxylamine hydrochloride, 1.5 M sodium hydroxide) for 1 minute. Twenty microliters of 4.0 M hydrochloric acid was then added to acidify the solution and stabilize the sugar hydroxamate. Color was developed by adding 20 μL of 0.5 M ferric chloride (FeCl3) and the absorbance at 540 nm was measured. For all experiments, control measurements were made on control samples where no enzyme was added. The background hydrolysis was subtracted from the total hydrolysis in the presence of enzyme.

The subject of data set [2] is S. thermophile Aldonolactonase 2 (Spoth1189286). Put plainly: Standard gluconolactonase assay with recombinant S. thermophile aldonolactonase 2. Type of data set: biochemical, Sporotrichum thermophile. The settings on record: unpurified concentrate, expressed in N. crassa. On the procedure:
as §1, with “Lactonase activity on gluconolactone was confirmed using the standard gluconolactonase assay (as described in other sections). The protein was not further purified because the affinity purification tag was removed by endogenous proteases in N. crassa. Aldonolactonase” for “Aldonolactonase”, “Hestrin” left out, “Color was developed by adding 20 μL of 0.5 M ferric chloride (FeCl3) and the absorbance at 540 nm was measured.” left out, “enzyme. This typically amounted to less than 10% of the total lactone.” for “enzyme.”

The conditions of data set [3]: cited from earlier work.
Substrate in data set [4]: O=C1O[C@H](CO)[C@@H](O[C@@H]2O[C@H](CO)[C@@H](O)[C@H](O)[C@H]2O)[C@H](O)[C@H]1O
Put plainly: purified protein, by the assay type. The following applies: other: steady-state kinetic constants; substrate of S. thermophile aldonolactonase 1; pH 5.0; 25.0 °C.
Procedure: (§2) Aldonolactonase activity was measured as described by Hestrin (21). The reactions were carried out in triplicate in 96-well microtiter plates. Briefly, 100 μL of 100 mM freshly dissolved sugar lactone was immediately mixed with 100 μL of 10 nM aldonolactonase enzyme buffered in 100 mM sodium acetate pH 5.0 for 1 minute at 25° C. The reaction was quenched by adding 40 μL of alkaline hydroxylamine (2.0 M hydroxylamine hydrochloride, 1.5 M sodium hydroxide) for 1 minute. Twenty microliters of 4.0 M hydrochloric acid was then added to acidify the solution and stabilize the sugar hydroxamate. Color was developed by adding 20 μL of 0.5 M ferric chloride (FeCl3) and the absorbance at 540 nm was measured. For all experiments, control measurements were made on control samples where no enzyme was added. The background hydrolysis was subtracted from the total hydrolysis in the presence of enzyme. This typically amounted to less than 10% of the total lactone.

Substrate in data set [5]: O=C1O[C@H](CO)[C@@H](O)[C@H](O)[C@H]1O
In words: purified protein, by the assay type.

Substrate in data set [6]: O=C1O[C@H](CO)[C@@H](O[C@@H]2O[C@H](CO)[C@H](O)[C@H](O)[C@H]2O)[C@H](O)[C@H]1O
In words: purified protein, by the assay type. The settings on record: other: steady-state kinetic constants; substrate of S. thermophile aldonolactonase 1; pH 5.0; 25.0 °C.
Procedure: as §2

A short description of data set [7]: Stability of aldonolactonase activity. Type of data set: physicochemical. The source says:
Sporotrichum thermophile is a thermophilic fungus isolated from soil and self-heating compost (3). […] During development of the present disclosure, an enzyme involved in the process of cellulose degradation was isolated from S. thermophile. As disclosed herein, an enzyme containing extracellular aldonolactonase activity was purified, identified, and characterized from the thermophilic ascomycete S. thermophile. The S. thermophile aldonolactonase hydrolyzes hexose δ-lactones over a broad range of pH values. […] (the growth condition for production of the enzyme). The expression profile and kinetic parameters of the S. thermophile aldonolactonase were determined on different substrates. The results disclosed herein provide insight into how S. thermophile utilizes aldonolactonase in nutrient acquisition, especially from hexose δ-lactones and how this enzyme can be utilized for biofuel production.
After 48 hours of growth on complex media containing cellulose, S. thermophile mycelia and residual cellulose were removed from the culture by filtering over 0.2 micron polyethersulfone (PES) filters. The filtered culture broth was then concentrated and buffer exchanged using tangential flow filtration with a 10 kDa molecular weight cut-off (MWCO) PES membrane (Millipore, Billerica, Mass.) into 25 mM 4-(2-hydroxyethyl)-1-piperazineethanesulfonic acid (HEPES) buffer, pH 7.4. […]

Data set [8] is described as follows: Aldonolactonase activity of enzyme preparations on glucono-δ-lactone. Type of data set: biochemical. The settings on record: glucono-δ-lactone as substrate, 25° C., pH 5.0. How it is done:
as §1, with “enzyme. This typically amounted to less than 10% of the total lactone.” for “enzyme.”

Data set [9] is described as follows: pH profile of S. thermophile aldonolactonase 1. Type of data set: biochemical. The following applies: from pH 3.0 to pH 8.0; 10 nM enzyme, 50 mM glucono-δ-lactone, room temperature. On the procedure:
FIG. 9 depicts the pH profile of S. thermophile aldonolactonase 1. Reactions were conducted at room temperature for 1 minute with 10 nM aldonolactonase, 50 mM glucono-δ-lactone, and 100 mM buffer. Buffers used included sodium citrate, pH 3.0; sodium acetate, pH 4.0; sodium acetate, pH 5.0; sodium succinate, pH 6.0; HEPES, pH 7.0; and Tris, pH 8.0. Error bars represent the standard deviation of three replicate experiments.

Where [10] appears, read: other: steady-state kinetic constants, substrate of S. thermophile aldonolactonase 1, pH 5.0, 25.0 °C.

On to `O=C1O[C@H](CO)[C@@H](O[C@@H]2O[C@H](CO)[C@H](O)[C@H](O)[C@H]2O)[C@H](O)[C@H]1O` [D-Lactono-δ-lactone], for which the “hydrolysis by S. thermophile aldonolactonase 1” value (shortened to “hydrolysis”) in [1] was “completely hydrolyze”.
As for `O=C1O[C@H](CO)[C@@H](O)[C@H](O)[C@H]1O` [D-Glucono-δ-lactone], the “lactonase activity on gluconolactone” value in data set [2] is listed as “confirmed”. The “equilibrium constant between glucono-δ-lactone and gluconic acid” value in data set [3] (favoring gluconic acid) is 7.7. In addition, in data set [3] (in water at room temperature and pH 5.0), the half-life entry is given as “approximately 1 hour”. Besides, the “hydrolysis” value in data set [1] is reported as “completely hydrolyze”.
Take `O=C1O[C@H](CO)[C@@H](O[C@@H]2O[C@H](CO)[C@@H](O)[C@H](O)[C@H]2O)[C@H](O)[C@H]1O` [D-Cellobiono-δ-lactone]: the “hydrolysis” value in data set [1] is recorded as “completely hydrolyze”.
The same measure, in the same setting: next, `O=C1O[C@H](CO)[C@@H](O)[C@@H]1O` [arabinolactone]: “not hydrolyzed”.
The same measure, in the same setting: the value for `O=C1O[C@H](CO)[C@H](O)[C@H]1O` [Xylonolactone] was “not hydrolyzed”.

B1: S. thermophile aldonolactonase 1 (Thermothelomyces thermophilus) (protein)
chain: APVCGGGSASDLLWVTTYPAGEGAQGKLLTLKLDGSKLEVVAESDTCGPYPSWLTQAGDVLYCVDEAWGGDHGTLHSLKINDDHSFTNLSQHETVGGPVSTVIYGKDGLGLAVADYAGGGIDTFNIADPAAIKLIKSLVYPAPTDGLPDPQNSARPHEAILDPTGEFLVFPDLGADQIRVLKVDKETLEYVEKPSYTDFDRGTGPRHGAFFKSGDKTFFYLVGELSNLLQGFSVAYNDDDSLTFTRIHNSTTHGDDKPLPEDTAAAELWIAPGSNFLTLSSRFESSLEYTVANGTKVPSDPLITFSIDKETGALTHVQSAPAGGINPRHFSFNSDGTRVASALQSDGRVVVFERDPSTGKIGKATAEGDVEGMPNFATFKQ
As a reminder, the Km is the substrate concentration at which the rate is half of its maximum. As usually defined, the kcat is the maximal rate divided by the concentration of active sites. As a reminder, the kcat/Km is the second-order rate constant that governs catalysis at low substrate concentration. Consider B1, for which the Michaelis constant (Km) in [4] is 21.6 mM; in data set [5] (setting [10]), 20.3 mM; in data set [6], 5.9 mM. The results for the catalytic constant (kcat) in data set [4], in data set [5] (setting [10]) and in data set [6] were 29100 s⁻¹, 11700 s⁻¹ and 7400 s⁻¹, respectively. Further, the specificity constant (kcat/Km) turned out to be 1.35e+06 ± 120000 M⁻¹ s⁻¹ in data set [4]; 600000 M⁻¹ s⁻¹ in data set [5] (other: 25° C. and pH 5.0); 580000 M⁻¹ s⁻¹ in data set [5] (setting [10]); 1.25e+06 ± 520000 M⁻¹ s⁻¹ in [6].

B2: S. thermophile aldonolactonase 1: extracellular aldonolactonase purified from S. thermophile culture broth, encoded by Spoth11109678 (SEQ ID NO: 1) (protein)
chain: MRTSYGVAFALSAGFRLATAAPVCGGGSASDLLWVTTYPAGEGAQGKLLTLKLDGSKLVVAESDTCGPYPSWLTQAGDVLYCVDEAWGGDHGTLHSLKINDDHSFTNLSQHETVGGPVSTVIYGKDGLGLAVADYAGGGIDTFNIADPAAIKLIKSLVYPAPTDGLPDPQNSARPHEAILDPTGEFLVFPDLGADQIRVLKVDKETLEYVEKPSYTDFDRGTGPRHGAFFKSGDKTFFYLVGELSNLLQGFSVAYNDDDSLTFTRIHNSTTHGDDKPLPEDTAAAELWIAPGSNFLTLSSRFESSLEYTVANGTKVPSDPLITFSIDKETGALTHVQSAPAGGINPRHFSFNSDGTRVASALQSDGRVVVFERDPSTGKIGKATAEGDVEGMPNFATFKQ
modifications: Sporotrichum thermophile; extracellular aldonolactonase 1
As for B2, the stability entry in data set [7] (50° C. (growth condition for production of the enzyme)) is “stable for several days”. In addition, the “storage stability of aldonolactonase activity” value in [7] (stored at −80° C.) is given as “stable for several months”. Also, the “activity relative to that reported for lactonases isolated from other filamentous fungi” value in data set [8] is reported as “approximately 20 fold”. The change in activity in data set [9] is recorded as 3 fold.
